We go through 8 sequences from the DeepSol protein solubility set.

A short description of the data set: soluble on expression in E. coli; label from the status in PepcDB or PDB records.
Consider “MSLNGIGSYEYCGRRISMQDSILVGNNFFGDASSLFGIFDGHGGDYGSCFISKEIQKSLEKLRGRALTKEVFENEIISAIQNINTLMEQNNMTDGATSVIVASTKTHYLIANIGDSRAIIIRRTETSPIPMKDIDDETQQTLRPKSPSKLVLPKKTLKGKLGWSGAGSSKTTNQIEVNFDYIGGGRIEVEALTHDHKPSYQEDRQRIRESGNYISDQEKVNGYISVTRAIGDVKCKAFVSCIPEFSEVARRSSDCFVICACDGVWDVFSNEEIGNLVMANEQMNCTELAKLIVDIAYCRLSSDNISCIVFNCQDSEGHHHHHH”, for which the “soluble on expression in E. coli” value is “soluble”. In the case of “PLPATANSHEYLLDNGLKLVVKEDHRSPVVIQQVWYKAGSMDEVNGTTGVAHALEHMMFKGTDSVLAGEFSRKIAAIGGKENAFTSRDYTAYYQQLHQRHLPMAMELESDRMHNLQLTEEAFAKEIQVVMEERRLRTDDQAHSLLYEKMMATAFQTHPYRRPVIGWMNDLENMQVNDARDWYQRWYAPNNAVLVVVGDVDPENVFVLAKKYYGRF”, the “soluble on expression in E. coli” value is listed as “not soluble”. “EVQLLESGGGLVQPGGSLRLSAAASGFTFSTFSMNWVRQAPGKGLEWVSYISRTSKTIYYADSVKGRFTISRDNSKNTLYLQMNSLRAEDTAVYYVARGRFFDYWGQGTLVTVS”: the “soluble on expression in E. coli” value is “soluble”.

For the sequence “MPGACGIYALATVSKPDPDMTQIITALAEISERYRALFVDLWGCVHNGVTAYPEAVAALQAYRAAGGIVVLVTNSPKPRAGVATQLSQFKVPQDAYDTIATSGDSARSAMFRGAVGQKVYFMGEWERDAGFFEPLKLLDSPVEITRVPLQEAEGIVCCGPFDPMADPAVNRPDFLYAKTKGMKLLCANPDIVVDRGEIREWCAGALARLYTEMGGESLYFGKPHPPIYDLARRRLLSLGADIADSEILAIGDGIQTDIAGGQGEGIDSLFISGGLAASETKTGHSPDPAALTAYLDRENRMPTYTIGQLR”, the “soluble on expression in E. coli” value is “not soluble”. “MGSDKIHHHHHHMLRKSLILVLTGALTGLFSSISQGAETLSVATDAIAADFYPATQAGPQYGVLVLGGAEGGKPESLAKAIAHEGHPVLSLAYFNDKGLPQELEQIPLEYFAKAKVWLLNQANVRQDGLILVGWSKGAELSLLLASQDPLFSKVVAIAPSSVIWAGFLKDWTKTPSSSWTQGGKALDFVPFRPTGEVKGLLDLYSQSLQNAKAGQGRIPVENIKGDVVLLTGSNDEIWPSNLMAKALCQRMDTAGTQGSCTHINFEGLDHLLGEKFLDSNDAMHKQFMGFLEAE”: the “soluble on expression in E. coli” value was “not soluble”.

“MSEFWKARNWQRKFLVTGRRCFHPMELFSEIKNRYFQLMFRIINECAEGKSKSEVLKIIDEGEFGQKVIGKNQKSFSDLVLNRCAPDENLNLLIEKDGMYYPSIMNSDESGNMAGNAAKKITRPPLPVRFSQIEKAWLKALLDKEEARMILSRETFDKLQKELAGIDTPIKDEYFEFTNKIKLPEIANQKAYEENFRLLLNAIIQEKPIRYNNIDKKGNMYNDRLALPVSIEYSMRDGRFRVSMYLLDENRPVMANVFTLSDIRIVDEDVGFDRETAKRLLLEQKYSEEPIILEVTDEKAAMERCFMCFSGMERTARSLGNNKYEIKLNYYLFEEENLIRNIISLGPYVKVISPQRIVDEVVARVKKAISLYNI”: the “soluble on expression in E. coli” value is listed as “not soluble”. Regarding “MAHHHHHHMLSTNISSNLNNTLVNITGRENKGEWLLYPQSNYEFNIDEKLKNKFIIDKEKCKKRINAYNKNGIRNSVLAIILCHRYEYPHLLLLQHIESQKYYLLNGKYKTWEKPKEVLKKKLQKYINKIKDIHFTPAQINKEQEETVEIGDFLGEWWRTQFNSVFLPYLPAHISRPKEYIRLYQVILSPKCIFHLPPGFTLKAIPLFDLNNCGLAISGLSSILSRFKLHCMVQEQDAEN”, the “soluble on expression in E. coli” value is on record as “not soluble”. As for “MKTENFRSYNQRVYSETLNDGLKITLIPKKDFHSVFAALFVNAGATDQQIVDEKGETIIFPSGTAHFAEHKMFEKKNGDVSEIFSAYGAFSNAYTSQSQTVYYFQGTENIDQSIKLLLQFVQEPYYTEASVAKEQGIIGQEISMYQDMPDWVSSFGLMKNLYRKQPLGEDIAGNIDSIETINADLLYKFHRYFYQPSNLQLKIAGNIDPTGLLALLKQTQARLTRPRINFSRVNRFNAKIPVKKSAEQNMPVALPLLAAGIKGSGNLPDIDTAIDLSFSSDLILDIYFSDSSDWYLRNYNQGFLNDDFSAQADVGRNYNFITFTGHSENKELFKEIYSQLKNISYSQELEKEFQWQKKASLGELSMSLDQLENNVFTIADVFNTDVNIFRVIEKLRELTYRKAVNLFESYYNLDSFSSFCVNPVE”, the entry is “not soluble”.
